# Test results taken from US7901879B2, “Lactoferrin in the treatment of malignant neoplasms and other hyperproliferative diseases” (Agennix Incorporated, priority 2002, dated 2011).
# Several values for one entry are separate records, joined by “and”; a condition that tells them apart may be missing. Equal entries are not always repeated. Marks after values point to notes of the source that are not given here.
# Columns and labels:
# [1] = tested on: NK-activity against YAC targets; test: Ex vivo NK activity of spleen NK cells against YAC targets (LDH release) after oral rhLF; type: in vivo, Balb/c naïve mice; conditions: for % Cytotoxicity Increased over ctrl: rhLF minus placebo; for % Cytotoxicity Final: oral 300 mg/kg/day 3 days
# Method: Balb/c naïve mice were treated orally with rhLF or placebo once a day for 3 days (see Table 4).
# (§1) On day 4, mice were sacrificed and spleens were collected. NK cells were separated using a magnetic bead cell sorting assay (MACS anti-NK-DX5) and counted. Cells were then tested in vitro for NK-activity against YAC targets using a lactate dehydrogenase (LDH) release test.
# as §1, with “Balb/c naïve mice were treated orally with rhLF or placebo once a” for “On”, “for 3 days. One day later (day 4),” for “4,”, “spleens” for “spleens were”
# [2] = tested on: GM-CSF; test: GM-CSF production in small intestine after oral rhLF (ELISA); type: in vivo, mice; conditions: oral 300 mg/kg/day three days
# Method: Recombinant human lactoferrin or placebo were orally administered to mice, and the production of GM-CSF in the small intestine was measured.
# Mice (5 animals per group) were treated for three days daily with 300 mg/kg/day of rhLF. For a control, mice were only administered the pharmaceutical carrier. Twenty-four hours following administration of the LF or placebo for 3 days, animals were and the small intestinal tissue was removed for further analysis. Small intestinal epithelium was homogenized using a lysis buffer consisting of PBS, 1% Nonidet P-40, 0.5% sodium deoxycholate, and 0.1% sodium dodecyl sulphate containing 10 μg/ml PhenylMetheylsulfonyl fluoride. Homogenate was centrifuged at 15,000 rpm for 10 minutes and the supernatant stored at −80 C. till it was tested for GM-CSF levels using an ELISA kit.
# [3] = tested on: circulating lymphocytes; test: Circulating lymphocytes after intratumoral rhLF in tumor-bearing mice (Example 18); type: in vivo, C3H/HeJ mice
# Method: Normal C3H/HeJ mice were implanted with one of two mouse tumors following the methodology described in Example 17. Tumors used were SCCVII and RIF mouse tumor cell lines. Following establishment of the tumors in the mice, tumors were injected intratumorally daily for 4 days with 250 or 500 μg rhLF per dose or with vehicle control. Twenty four hours following the last intratumoral injection, animals were sacrificed and the blood examined for lymphocyte populations. The number of circulating lymphocytes were increased by 34% to 56% relative to the placebo treated control animals (Table 14).
# [4] = intratumoral 250 or 500 μg per dose daily for 4 days, blood 24 h after last injection
molecule,measurement,setting,value
"Recombinant human lactoferrin (protein, UniProt P02788 20-710, looked up, human lactoferrin produced recombinantly) Lactotransferrin: GRRRSVQWCAVSQPEATKCFQWQRNMRKVRGPPVSCIKRDSPIQCIQAIAENRADAVTLDGGFIYEAGLAPYKLRPVAAEVYGTERQPRTHYYAVAVVKKGGSFQLNELQGLKSCHTGLRRTAGWNVPIGTLRPFLNWTGPPEPIEAAVARFFSASCVPGADKGQFPNLCRLCAGTGENKCAFSSQEPYFSYSGAFKCLRDGAGDVAFIRESTVFEDLSDEAERDEYELLCPDNTRKPVDKFKDCHLARVPSHAVVARSVNGKEDAIWNLLRQAQEKFGKDKSPKFQLFGSPSGQKDLLFKDSAIGFSRVPPRIDSGLYLGSGYFTAIQNLRKSEEEVAARRARVVWCAVGEQELRKCNQWSGLSEGSVTCSSASTTEDCIALVLKGEADAMSLDGGYVYTAGKCGLVPVLAENYKSQQSSDPDPNCVDRPVEGYLAVAVVRRSDTSLTWNSVKGKKSCHTAVDRTAGWNIPMGLLFNQTGSCKFDEYFSQSCAPGSDPRSNLCALCIGDEQGENKCVPNSNERYYGYTGAFRCLAENAGDVAFVKDVTVLQNTDGNNNEAWAKDLKLADFALLCLDGKRKPVTEARSCHLAMAPNHAVVSRMDKVERLKQVLLHQQAKFGRNGSDCPDKFCLFQSETKNLLFNDNTECLARLHGKTTYEKYLGPQYVAGITNLKKCSTSPLLEACEFLRK",relative increase of NK activity over placebo-treated animals,"[1]; 30:1 E:T ratio, p<0.05",243%
same,% Cytotoxicity Increased over ctrl,[1]; E:T ratio 3.7:1,0%
same,% Cytotoxicity Increased over ctrl,[1]; E:T ratio 7.5:1,0%
same,% Cytotoxicity Increased over ctrl,[1]; E:T ratio 15:1,1.3%
same,% Cytotoxicity Increased over ctrl,[1]; E:T ratio 30:1,7** %
same,% Cytotoxicity Final,[1]; E:T ratio 3.7:1,0%
same,% Cytotoxicity Final,[1]; E:T ratio 7.5:1,0.44%
same,% Cytotoxicity Final,[1]; E:T ratio 15:1,4.12%
same,% Cytotoxicity Final,"[1]; E:T ratio 30:1, 300 mg/kg/day",10% and 9.81%
same,% Cytotoxicity Final,"[1]; E:T ratio 30:1, listed as RhLF, 300 mg/kg/day",9.81%
same,GM-CSF Mean (SEM),[2]; 24 h after last dose,7.74 (0.19) pg
same,GM-CSF Increase over Placebo,[2]; p < 0.01,19.4% (p < 0.01)
same,Number of Cells CD3+,[3]; [4],3291
same,Number of Cells CD4+,[3]; [4],2621
same,Number of Cells CD8+,[3]; [4],1054
same,"Increase with rhLF, CD3+",[3]; relative to placebo,56%
same,"Increase with rhLF, CD4+",[3]; relative to placebo,46%
same,"Increase with rhLF, CD8+",[3]; relative to placebo,34%
